Tests used:
[1] = biological target: T1, FLAG-tagged Regnase-1 AA mutant (S435A/S439A), purified from or expressed in Regnase-1-deficient MEFs
T1 chain: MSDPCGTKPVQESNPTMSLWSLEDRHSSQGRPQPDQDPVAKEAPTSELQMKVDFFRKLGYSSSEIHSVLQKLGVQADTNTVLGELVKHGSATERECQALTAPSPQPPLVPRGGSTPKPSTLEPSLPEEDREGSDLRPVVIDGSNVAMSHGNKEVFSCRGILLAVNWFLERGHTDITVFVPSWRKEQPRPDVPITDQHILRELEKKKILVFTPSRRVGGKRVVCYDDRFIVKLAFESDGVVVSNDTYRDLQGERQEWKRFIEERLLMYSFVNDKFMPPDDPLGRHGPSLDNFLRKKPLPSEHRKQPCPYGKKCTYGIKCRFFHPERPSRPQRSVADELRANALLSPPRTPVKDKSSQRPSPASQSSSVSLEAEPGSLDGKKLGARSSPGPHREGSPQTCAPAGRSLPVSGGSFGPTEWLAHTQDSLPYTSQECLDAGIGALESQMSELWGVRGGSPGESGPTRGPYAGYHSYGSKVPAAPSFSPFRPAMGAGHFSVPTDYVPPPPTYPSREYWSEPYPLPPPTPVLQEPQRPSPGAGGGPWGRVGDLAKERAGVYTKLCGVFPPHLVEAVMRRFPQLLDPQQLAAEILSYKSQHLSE

[2] = biological target: T2, biotinylated human Regnase-1 (full length, C-terminal BirA recognition sequence, GST tag cleaved)
T2 chain: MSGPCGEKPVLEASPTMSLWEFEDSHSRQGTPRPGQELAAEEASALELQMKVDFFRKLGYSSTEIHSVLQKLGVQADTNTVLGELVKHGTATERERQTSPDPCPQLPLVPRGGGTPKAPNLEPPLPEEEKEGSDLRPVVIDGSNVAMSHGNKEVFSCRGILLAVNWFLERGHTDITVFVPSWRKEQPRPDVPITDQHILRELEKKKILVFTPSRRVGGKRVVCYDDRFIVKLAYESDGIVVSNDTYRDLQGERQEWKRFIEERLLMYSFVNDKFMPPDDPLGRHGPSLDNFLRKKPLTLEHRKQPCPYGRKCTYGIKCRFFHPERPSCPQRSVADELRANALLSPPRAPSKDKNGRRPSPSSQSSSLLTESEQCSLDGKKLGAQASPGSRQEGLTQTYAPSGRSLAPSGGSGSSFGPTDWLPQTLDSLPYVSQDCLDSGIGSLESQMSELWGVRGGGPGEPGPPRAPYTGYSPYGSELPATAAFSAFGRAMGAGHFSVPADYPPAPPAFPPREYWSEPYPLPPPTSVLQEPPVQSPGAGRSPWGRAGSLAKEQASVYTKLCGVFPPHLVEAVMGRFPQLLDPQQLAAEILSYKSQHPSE

B1: GST-tagged TBK1 (Sigma) (protein)
chain: MQSTSNHLWLLSDILGQGATANVFRGRHKKTGDLFAIKVFNNISFLRPVDVQMREFEVLKKLNHKNIVKLFAIEEETTTRHKVLIMEFCPCGSLYTVLEEPSNAYGLPESEFLIVLRDVVGGMNHLRENGIVHRDIKPGNIMRVIGEDGQSVYKLTDFGAARELEDDEQFVSLYGTEEYLHPDMYERAVLRKDHQKKYGATVDLWSIGVTFYHAATGSLPFRPFEGPRRNKEVMYKIITGKPSGAISGVQKAENGPIDWSGDMPVSCSLSRGLQVLLTPVLANILEADQEKCWGFDQFFAETSDILHRMVIHVFSLQQMTAHKIYIHSYNTATIFHELVYKQTKIISSNQELIYEGRRLVLEPGRLAQHFPKTTEENPIFVVSREPLNTIGLIYEKISLPKVHPRYDLDGDASMAKAITGVVCYACRIASTLLLYQELMRKGIRWLIELIKDDYNETVHKKTEVVITLDFCIRNIEKTVKVYEKLMKINLEAAELGEISDIHTKLLRLSSSQGTIETSLQDIDSRLSPGGSLADAWAHQEGTHPKDRNVEKLQVLLNCMTEIYYQFKKDKAERRLAYNEEQIHKFDKQKLYYHATKAMTHFTDECVKKYEAFLNKSEEWIRKMLHLRKQLLSLTNQCFDIEEEVSKYQEYTNELQETLPQKMFTASSGIKHTMTPIYPSSNTLVEMTLGMKKLKEEMEGVVKELAENNHILERFGSLTMDGGLRNVDCL
With B1 the “in vitro phosphorylation (mobility shift by immunoblotting, 32P autoradiography)” value [1] was “Phosphorylation of recombinant Regnase-1 by recombinant TBK1 and/or IKKi under in vitro conditions was detected”.

B2: TBK1 (manufactured by SignalChem) (protein)
chain: MQSTSNHLWLLSDILGQGATANVFRGRHKKTGDLFAIKVFNNISFLRPVDVQMREFEVLKKLNHKNIVKLFAIEEETTTRHKVLIMEFCPCGSLYTVLEEPSNAYGLPESEFLIVLRDVVGGMNHLRENGIVHRDIKPGNIMRVIGEDGQSVYKLTDFGAARELEDDEQFVSLYGTEEYLHPDMYERAVLRKDHQKKYGATVDLWSIGVTFYHAATGSLPFRPFEGPRRNKEVMYKIITGKPSGAISGVQKAENGPIDWSGDMPVSCSLSRGLQVLLTPVLANILEADQEKCWGFDQFFAETSDILHRMVIHVFSLQQMTAHKIYIHSYNTATIFHELVYKQTKIISSNQELIYEGRRLVLEPGRLAQHFPKTTEENPIFVVSREPLNTIGLIYEKISLPKVHPRYDLDGDASMAKAITGVVCYACRIASTLLLYQELMRKGIRWLIELIKDDYNETVHKKTEVVITLDFCIRNIEKTVKVYEKLMKINLEAAELGEISDIHTKLLRLSSSQGTIETSLQDIDSRLSPGGSLADAWAHQEGTHPKDRNVEKLQVLLNCMTEIYYQFKKDKAERRLAYNEEQIHKFDKQKLYYHATKAMTHFTDECVKKYEAFLNKSEEWIRKMLHLRKQLLSLTNQCFDIEEEVSKYQEYTNELQETLPQKMFTASSGIKHTMTPIYPSSNTLVEMTLGMKKLKEEMEGVVKELAENNHILERFGSLTMDGGLRNVDCL
For B2, the “in vitro phosphorylation reaction, western blotting with anti-phosphorylated Regnase-1 antibody” value [2] was “it was confirmed that human Regnase-1 is phosphorylated by IKKβ and TBK1”.

B3: GST-tagged IKKi (Thermo Fisher Scientific) (protein)
chain: MQSTANYLWHTDDLLGQGATASVYKARNKKSGELVAVKVFNTTSYLRPREVQVREFEVLRKLNHQNIVKLFAVEETGGSRQKVLVMEYCSSGSLLSVLESPENAFGLPEDEFLVVLRCVVAGMNHLRENGIVHRDIKPGNIMRLVGEEGQSIYKLTDFGAARELDDDEKFVSVYGTEEYLHPDMYERAVLRKPQQKAFGVTVDLWSIGVTLYHAATGSLPFIPFGGPRRNKEIMYRITTEKPAGAIAGAQRRENGPLEWSYTLPITCQLSLGLQSQLVPILANILEVEQAKCWGFDQFFAETSDILQRVVVHVFSLSQAVLHHIYIHAHNTIAIFQEAVHKQTSVAPRHQEYLFEGHLCVLEPSVSAQHIAHTTASSPLTLFSTAIPKGLAFRDPALDVPKFVPKVDLQADYNTAKGVLGAGYQALRLARALLDGQELMFRGLHWVMEVLQATCRRTLEVARTSLLYLSSSLGTERFSSVAGTPEIQELKAAAELRSRLRTLAEVLSRCSQNITETQESLSSLNRELVKSRDQVHEDRSIQQIQCCLDKMNFIYKQFKKSRMRPGLGYNEEQIHKLDKVNFSHLAKRLLQVFQEECVQKYQASLVTHGKRMRVVHETRNHLRLVGCSVAACNTEAQGVQESLSKLLEELSHQLLQDRAKGAQASPPPIAPYPSPTRKDLLLHMQELCEGMKLLASDLLDNNRIIERLNRVPAPPDV
B3 was tested, and the “in vitro phosphorylation (mobility shift by immunoblotting, 32P autoradiography)” value [1] was “Phosphorylation of recombinant Regnase-1 by recombinant TBK1 and/or IKKi under in vitro conditions was detected”.

B4: IKKβ (manufactured by SignalChem) (protein)
chain: MSWSPSLTTQTCGAWEMKERLGTGGFGNVIRWHNQETGEQIAIKQCRQELSPRNRERWCLEIQIMRRLTHPNVVAARDVPEGMQNLAPNDLPLLAMEYCQGGDLRKYLNQFENCCGLREGAILTLLSDIASALRYLHENRIIHRDLKPENIVLQQGEQRLIHKIIDLGYAKELDQGSLCTSFVGTLQYLAPELLEQQKYTVTVDYWSFGTLAFECITGFRPFLPNWQPVQWHSKVRQKSEVDIVVSEDLNGTVKFSSSLPYPNNLNSVLAERLEKWLQLMLMWHPRQRGTDPTYGPNGCFKALDDILNLKLVHILNMVTGTIHTYPVTEDESLQSLKARIQQDTGIPEEDQELLQEAGLALIPDKPATQCISDGKLNEGHTLDMDLVFLFDNSKITYETQISPRPQPESVSCILQEPKRNLAFFQLRKVWGQVWHSIQTLKEDCNRLQQGQRAAMMNLLRNNSCLSKMKNSMASMSQQLKAKLDFFKTSIQIDLEKYSEQTEFGITSDKLLLAWREMEQAVELCGRENEVKLLVERMMALQTDIVDLQRSPMGRKQGGTLDDLEEQARELYRRLREKPRDQRTEGDSQEMVRLLLQAIQSFEKKVRVIYTQLSKTVVCKQKALELLPKVEEVVSLMNEDEKTVVRLQEKRQKELWNLLKIACSKVRGPVSGSPDSMNASRLSQPGQLMSQPSTASNSLPEPAKKSEELVAEAHNLCTLLENAIQDTVREQDQSFTALDWSWLQTEEEEHSCLEQAS
In the case of B4, the “in vitro phosphorylation reaction, western blotting with anti-phosphorylated Regnase-1 antibody” value [2] is reported as “it was confirmed that human Regnase-1 is phosphorylated by IKKβ and TBK1”.

Reference: US20250018014A1, “METHOD FOR TREATING AND/OR PREVENTING REGNASE-1-RELATED DISEASE” (OSAKA UNIVERSITY, priority 2018, published 2025)
